Here are results for one substance from US6716624B2, “GSK3 polypeptides” (Chiron Corporation, priority 2000, dated 2004).

Series [1] has as its system prephosphorylated SGSG-linked CREB peptide. Put plainly: Kinase specific activity of truncated GSK3β polypeptides (P81 filter assay). To be noted: 5.9 μM CREB peptide, 25 μM ATP, 20 min at room temperature. The class given is biochemical. As to the method:
A reaction mixture was prepared containing 5.9 μM prephosphorylated SGSG-linked CREB peptide (Wang et al., Anal. Biochem., 220:397-402 (1994))μ in reaction buffer (5 mM Tris, pH 7.5, 5 mM DTT; 1 mM MgCl2, 0.01% BSA) containing the desired amount of truncated GSK3 polypeptide. ATP was added (specific activity 5.3 Ci/mmol) to 25 μM final concentration and the mixture was incubated for 20 min. at room temperature. The reaction was stopped by transferring 30 μl onto a P81 filter disc (Whatman). The disc was washed four times in 150 ml of 75 mM H3PO4 for 5 minute each. The filter was air dried and counted under 5 ml scintillation fluid. The specific activity was counted by determining the ratio of counts (in cpm) by the mass of GSK3 in the reaction (in μg).

The nature of series [2]: Concentration of the protein stock (solubility of the construct). The format is physicochemical. To be noted: concentrated protein stock. Here is the method:
The GSK3 constructs of the invention are capable of crystallization. […] Potential to crystallize is measured using a variety of assays including specific activity, aggregation, microheterogeneity. (See, for example, Table 1). These parameters are indicative of the purity of the preparation and of the solubility of the construct. The specific activity is also a preferred assay for detecting binding of an inhibitor to the correct binding site of the GSK3 construct. Another suitable method is fluorescence polarization. Briefly, a putative inhibitor, with an attached fluorophore, tumbles freely in solution. Thus when the fluorophore is excited by polarized light, the emitted light which is produced after a finite delay now has random polarity and the emitted light is no longer polarized. In the presence of a GSK3 construct with an intact inhibitor binding site, the tumbling rate is slowed sufficiently to ensure that, even though the light emission is delayed with respect to the excitation, the fluorophore has only moved very slightly. Thus, the excited light maintains polarization. A measurement of fluorescence polarization therefore indicates whether or not the GSK3 construct is suitable for identifying and optimizing an inhibitor. […] GSK3 constructs may not retain kinase activity, but their inhibitor binding can still be assessed using fluorescence polarization assays. […]

Series [3] in a line: Aggregation of the purified construct on storage. The class given is physicochemical. As to the method: The GSK3 constructs of the invention are capable of crystallization. […] Potential to crystallize is measured using a variety of assays including specific activity, aggregation, microheterogeneity. (See, for example, Table 1). These parameters are indicative of the purity of the preparation and of the solubility of the construct. The specific activity is also a preferred assay for detecting binding of an inhibitor to the correct binding site of the GSK3 construct. Another suitable method is fluorescence polarization. Briefly, a putative inhibitor, with an attached fluorophore, tumbles freely in solution. Thus when the fluorophore is excited by polarized light, the emitted light which is produced after a finite delay now has random polarity and the emitted light is no longer polarized. […] A measurement of fluorescence polarization therefore indicates whether or not the GSK3 construct is suitable for identifying and optimizing an inhibitor. […] GSK3 constructs may not retain kinase activity, but their inhibitor binding can still be assessed using fluorescence polarization assays.
A truncated GSK3 polypeptide of the invention can be selected on the basis of one or more parameters. […] The potential of a polypeptide to form crystals can be evaluated on the basis of specific activity, purity, homogeneity, mass spectrometry, aggregation, and dynamic light scattering. […]

Consider “Construct 557: Truncated human GSK3β, M1 to I384, with N-terminal Glu-tag and Gly linker (SEQ ID NO:2)”, for which, in series [1] (mean of N assays), the “Mean Specific Activity” value is 4.3 × 10^7 cpm/μg. The specific activity in series [1] (stated in the text) is 4.3×10^7 cpm/μg. This substance registered a Concentration in series [2] of 12700 µg/mL. The “Aggregation at 4 Degrees” value in series [3] (4 degrees, > 2 weeks) is “none @ > 2”. Besides, the “Aggregation at RT” value in series [3] (room temperature, time at which aggregation occurs) is on record as “overnight”.
